Experimental findings from PMC7617670, “Activity Regulation of a Glutamine Amidotransferase Bienzyme Complex by Substrate-Induced Subunit Interface Expansion” (ACS catalysis, 2025) are described below.

T1: PabA, glutaminase subunit of aminodeoxychorismate synthase (ADCS) from Escherichia coli, wild type (Escherichia coli, UniProt P00903 1-187)
T1 sequence: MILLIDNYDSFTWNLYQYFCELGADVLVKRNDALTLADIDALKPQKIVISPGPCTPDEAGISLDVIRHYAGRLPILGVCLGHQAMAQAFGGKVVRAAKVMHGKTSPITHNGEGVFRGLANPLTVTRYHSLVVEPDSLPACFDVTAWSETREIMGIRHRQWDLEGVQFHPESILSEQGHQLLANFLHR

B1: PabA double variant [Y127A, S171A] (enzyme, Escherichia coli)
chain: MILLIDNYDSFTWNLYQYFCELGADVLVKRNDALTLADIDALKPQKIVISPGPCTPDEAGISLDVIRHYAGRLPILGVCLGHQAMAQAFGGKVVRAAKVMHGKTSPITHNGEGVFRGLANPLTVTRAHSLVVEPDSLPACFDVTAWSETREIMGIRHRQWDLEGVQFHPEAILSEQGHQLLANFLHR
notes: PabA, glutaminase subunit of ADCS, E. coli; construct as m1 with two exchanges; Made by mutagenesis from the construct of m1; source: E. coli BL21-Gold (DE3), purified (Ni-IMAC, preparative gel filtration)
B2: PabB, synthase subunit of aminodeoxychorismate synthase (ADCS) from Escherichia coli, wild type (enzyme)
chain: MKTLSPAVITLLWRQDAAEFYFSRLSHLPWAMLLHSGYADHPYSRFDIVVAEPICTLTTFGKETVVSESEKRTTTTDDPLQVLQQVLDRADIRPTHNEDLPFQGGALGLFGYDLGRRFESLPEIAEQDIVLPDMAVGIYDWALIVDHQRHTVSLLSHNDVNARRAWLESQQFSPQEDFTLTSDWQSNMTREQYGEKFRQVQEYLHSGDCYQVNLAQRFHATYSGDEWQAFLQLNQANRAPFSAFLRLEQGAILSLSPERFILCDNSEIQTRPIKGTLPRLPDPQEDSKQAVKLANSAKDRAENLMIVDLMRNDIGRVAVAGSVKVPELFVVEPFPAVHHLVSTITAQLPEQLHASDLLRAAFPGGSITGAPKVRAMEIIDELEPQRRNAWCGSIGYLSFCGNMDTSITIRTLTAINGQIFCSAGGGIVADSQEEAEYQETFDKVNRILKQLEK
B3: PabB variant bR311A (enzyme, Escherichia coli)
chain: MKTLSPAVITLLWRQDAAEFYFSRLSHLPWAMLLHSGYADHPYSRFDIVVAEPICTLTTFGKETVVSESEKRTTTTDDPLQVLQQVLDRADIRPTHNEDLPFQGGALGLFGYDLGRRFESLPEIAEQDIVLPDMAVGIYDWALIVDHQRHTVSLLSHNDVNARRAWLESQQFSPQEDFTLTSDWQSNMTREQYGEKFRQVQEYLHSGDCYQVNLAQRFHATYSGDEWQAFLQLNQANRAPFSAFLRLEQGAILSLSPERFILCDNSEIQTRPIKGTLPRLPDPQEDSKQAVKLANSAKDRAENLMIVDLMANDIGRVAVAGSVKVPELFVVEPFPAVHHLVSTITAQLPEQLHASDLLRAAFPGGSITGAPKVRAMEIIDELEPQRRNAWCGSIGYLSFCGNMDTSITIRTLTAINGQIFCSAGGGIVADSQEEAEYQETFDKVNRILKQLEK
B4: PabB variant bD308A (enzyme, Escherichia coli)
chain: MKTLSPAVITLLWRQDAAEFYFSRLSHLPWAMLLHSGYADHPYSRFDIVVAEPICTLTTFGKETVVSESEKRTTTTDDPLQVLQQVLDRADIRPTHNEDLPFQGGALGLFGYDLGRRFESLPEIAEQDIVLPDMAVGIYDWALIVDHQRHTVSLLSHNDVNARRAWLESQQFSPQEDFTLTSDWQSNMTREQYGEKFRQVQEYLHSGDCYQVNLAQRFHATYSGDEWQAFLQLNQANRAPFSAFLRLEQGAILSLSPERFILCDNSEIQTRPIKGTLPRLPDPQEDSKQAVKLANSAKDRAENLMIVALMRNDIGRVAVAGSVKVPELFVVEPFPAVHHLVSTITAQLPEQLHASDLLRAAFPGGSITGAPKVRAMEIIDELEPQRRNAWCGSIGYLSFCGNMDTSITIRTLTAINGQIFCSAGGGIVADSQEEAEYQETFDKVNRILKQLEK
B5: PabB variant bD308N (enzyme, Escherichia coli)
chain: MKTLSPAVITLLWRQDAAEFYFSRLSHLPWAMLLHSGYADHPYSRFDIVVAEPICTLTTFGKETVVSESEKRTTTTDDPLQVLQQVLDRADIRPTHNEDLPFQGGALGLFGYDLGRRFESLPEIAEQDIVLPDMAVGIYDWALIVDHQRHTVSLLSHNDVNARRAWLESQQFSPQEDFTLTSDWQSNMTREQYGEKFRQVQEYLHSGDCYQVNLAQRFHATYSGDEWQAFLQLNQANRAPFSAFLRLEQGAILSLSPERFILCDNSEIQTRPIKGTLPRLPDPQEDSKQAVKLANSAKDRAENLMIVNLMRNDIGRVAVAGSVKVPELFVVEPFPAVHHLVSTITAQLPEQLHASDLLRAAFPGGSITGAPKVRAMEIIDELEPQRRNAWCGSIGYLSFCGNMDTSITIRTLTAINGQIFCSAGGGIVADSQEEAEYQETFDKVNRILKQLEK
B6: PabB variant bD308E (enzyme, Escherichia coli)
chain: MKTLSPAVITLLWRQDAAEFYFSRLSHLPWAMLLHSGYADHPYSRFDIVVAEPICTLTTFGKETVVSESEKRTTTTDDPLQVLQQVLDRADIRPTHNEDLPFQGGALGLFGYDLGRRFESLPEIAEQDIVLPDMAVGIYDWALIVDHQRHTVSLLSHNDVNARRAWLESQQFSPQEDFTLTSDWQSNMTREQYGEKFRQVQEYLHSGDCYQVNLAQRFHATYSGDEWQAFLQLNQANRAPFSAFLRLEQGAILSLSPERFILCDNSEIQTRPIKGTLPRLPDPQEDSKQAVKLANSAKDRAENLMIVELMRNDIGRVAVAGSVKVPELFVVEPFPAVHHLVSTITAQLPEQLHASDLLRAAFPGGSITGAPKVRAMEIIDELEPQRRNAWCGSIGYLSFCGNMDTSITIRTLTAINGQIFCSAGGGIVADSQEEAEYQETFDKVNRILKQLEK
B7: PabB variant bE119R (enzyme, Escherichia coli)
chain: MKTLSPAVITLLWRQDAAEFYFSRLSHLPWAMLLHSGYADHPYSRFDIVVAEPICTLTTFGKETVVSESEKRTTTTDDPLQVLQQVLDRADIRPTHNEDLPFQGGALGLFGYDLGRRFRSLPEIAEQDIVLPDMAVGIYDWALIVDHQRHTVSLLSHNDVNARRAWLESQQFSPQEDFTLTSDWQSNMTREQYGEKFRQVQEYLHSGDCYQVNLAQRFHATYSGDEWQAFLQLNQANRAPFSAFLRLEQGAILSLSPERFILCDNSEIQTRPIKGTLPRLPDPQEDSKQAVKLANSAKDRAENLMIVDLMRNDIGRVAVAGSVKVPELFVVEPFPAVHHLVSTITAQLPEQLHASDLLRAAFPGGSITGAPKVRAMEIIDELEPQRRNAWCGSIGYLSFCGNMDTSITIRTLTAINGQIFCSAGGGIVADSQEEAEYQETFDKVNRILKQLEK
B8: PabA variant aP53A (enzyme, Escherichia coli)
chain: MILLIDNYDSFTWNLYQYFCELGADVLVKRNDALTLADIDALKPQKIVISPGACTPDEAGISLDVIRHYAGRLPILGVCLGHQAMAQAFGGKVVRAAKVMHGKTSPITHNGEGVFRGLANPLTVTRYHSLVVEPDSLPACFDVTAWSETREIMGIRHRQWDLEGVQFHPESILSEQGHQLLANFLHR
notes: PabA, glutaminase subunit of ADCS, E. coli; construct as m1 with one exchange; Made by QuikChange mutagenesis from the construct of m1; source: E. coli BL21-Gold (DE3), purified (Ni-IMAC, preparative gel filtration)
B9: PabA variant aR30E (enzyme, Escherichia coli)
chain: MILLIDNYDSFTWNLYQYFCELGADVLVKENDALTLADIDALKPQKIVISPGPCTPDEAGISLDVIRHYAGRLPILGVCLGHQAMAQAFGGKVVRAAKVMHGKTSPITHNGEGVFRGLANPLTVTRYHSLVVEPDSLPACFDVTAWSETREIMGIRHRQWDLEGVQFHPESILSEQGHQLLANFLHR
notes: as for B8
B10: PabA variant aC54A (enzyme, Escherichia coli)
chain: MILLIDNYDSFTWNLYQYFCELGADVLVKRNDALTLADIDALKPQKIVISPGPATPDEAGISLDVIRHYAGRLPILGVCLGHQAMAQAFGGKVVRAAKVMHGKTSPITHNGEGVFRGLANPLTVTRYHSLVVEPDSLPACFDVTAWSETREIMGIRHRQWDLEGVQFHPESILSEQGHQLLANFLHR
notes: as for B8
B11: PabA variant aS171A (enzyme, Escherichia coli)
chain: MILLIDNYDSFTWNLYQYFCELGADVLVKRNDALTLADIDALKPQKIVISPGPCTPDEAGISLDVIRHYAGRLPILGVCLGHQAMAQAFGGKVVRAAKVMHGKTSPITHNGEGVFRGLANPLTVTRYHSLVVEPDSLPACFDVTAWSETREIMGIRHRQWDLEGVQFHPEAILSEQGHQLLANFLHR
notes: as for B8
B12: PabA variant aC54G (enzyme, Escherichia coli)
chain: MILLIDNYDSFTWNLYQYFCELGADVLVKRNDALTLADIDALKPQKIVISPGPGTPDEAGISLDVIRHYAGRLPILGVCLGHQAMAQAFGGKVVRAAKVMHGKTSPITHNGEGVFRGLANPLTVTRYHSLVVEPDSLPACFDVTAWSETREIMGIRHRQWDLEGVQFHPESILSEQGHQLLANFLHR
notes: as for B8
B13: PabA variant aH128A (enzyme, Escherichia coli)
chain: MILLIDNYDSFTWNLYQYFCELGADVLVKRNDALTLADIDALKPQKIVISPGPCTPDEAGISLDVIRHYAGRLPILGVCLGHQAMAQAFGGKVVRAAKVMHGKTSPITHNGEGVFRGLANPLTVTRYASLVVEPDSLPACFDVTAWSETREIMGIRHRQWDLEGVQFHPESILSEQGHQLLANFLHR
notes: as for B8

One assay concerns the target B2. Kind of assay: SEC; analytical SEC with 5 mM L-Gln in the buffer; PabA and PabB mixed equimolar, 50 μM each; Superdex 200 increase 10/300 GL; 50 mM Tris/HCl pH 7.5, 50 mM KCl, 5 mM MgCl2, 2 mM DTT; 25 °C; without Cho. To be noted: both partners purified.
Take B1: the binding result is listed as “binds”.

The target in a further assay is B9. Nature of the assay: cell-based or functional assay.
Conditions: not given
On to B2, for which the “glutaminase catalytic efficiency kcat/KM^Gln (coupled GDH assay, 200 μM Cho, PabB in fourfold excess)” value stood at 79 M⁻¹ s⁻¹.

The next assay deals with T1, PabA, glutaminase subunit of …. Nature of the assay: cell-based or functional assay.
Conditions: not given
Consider B2, for which the “glutaminase catalytic efficiency kcat/KM^Gln (coupled GDH assay, 200 μM Cho, PabB in fourfold excess)” value stood at 1090 M⁻¹ s⁻¹.

As for B3, the “glutaminase catalytic efficiency kcat/KM^Gln (coupled GDH assay, 200 μM Cho, PabB in fourfold excess)” value was 100 M⁻¹ s⁻¹. For the molecule B4, the “glutaminase catalytic efficiency kcat/KM^Gln (coupled GDH assay, 200 μM Cho, PabB in fourfold excess)” value turned out to be 13 M⁻¹ s⁻¹.

On to B5, for which the “glutaminase catalytic efficiency kcat/KM^Gln (coupled GDH assay, 200 μM Cho, PabB in fourfold excess)” value stood at 36 M⁻¹ s⁻¹.

Turning to B6, the “glutaminase catalytic efficiency kcat/KM^Gln (coupled GDH assay, 200 μM Cho, PabB in fourfold excess)” value is 1540 M⁻¹ s⁻¹. With B7, the “glutaminase catalytic efficiency kcat/KM^Gln (coupled GDH assay, 200 μM Cho, PabB in fourfold excess)” value amounted to 60 M⁻¹ s⁻¹.

The target of the next assay is B2. Kind of assay: ITC; 250 μM PabB titrated into 25 μM PabA in the cell; 25 °C; 50 mM Tris/HCl pH 7.5, 50 mM KCl, 5 mM MgCl2; without Cho and Gln; one set of sites. Particulars: both partners purified.
The molecule B8 registered a Kd of 180 nM.

As for B9, the affinity, expressed as Kd, was 380 nM. On the same count and under the same terms, with B10 the figure was 180 nM; with B11, 920 nM.

On to B12, for which binding was characterised by a dissociation constant (Kd) of 60 nM. Same read-out and setting: with B13 the figure was 370 nM.
